Measured values taken from the DeepSol protein solubility set.

Test: soluble on expression in E. coli; label from the status in PepcDB or PDB records

Row | Sequence | soluble on expression in E. coli
1 | MAHHHHHHMIDPVKRDLTNLFLEKREMAKEEIDPRKDWLKRILLNNNTNDLRMFLKASELKTKEGDYCMTCKSNVKQLLYLHTKKNYCHLCEEIFCAYCVKSIDFMKDEKEKYIKIRLCRNCFIYINELKYIINPNLSVDRKAIDLQNSFNDISNCYTNLCSNVPQLNGLVLLCENNKEFLDSFKSEIKQLEEKIQHDVDFLNIMKKKNNFLSDNTLILNKMGKNLLLYLKIIRNKIIPSSIEVLNKTKELLYKK | not soluble
2 | MLVFISNSRLSESEVQKLRDKHLIDDFIQRENKGYDFAAWHDGMEFVGFENLKQYDSVTVMNDTCFGPLWDMAPIYDNYESNPNVDFWGMTNHQGIKAGDIYIHEHLQSYFISFKKRLVESSVFQKFWKSVESFEDVQKVIDNYETLYTKKFRDAGFNYESILNTIPLNDKFFHSNFTIHYPHVLLDTGVPFIKVKTFDLTQHLAPYLLKEIEKRTDYPVELILSHMSDMSLPTPPYLLDRKVIEKSSQTYSDTKKIAVHLHTYYVDLLEDFLKQFENFHFTYDLFLTTDSEDKKAEIQSILDKNGKVARIFITGNRGRDVIPMLKLKDELSAYDYIGHFHTKKSPEYPYWVGDSWRNELFSMLIQPADNIIANLERDDRLGLVIADIPSFFRYTKIVDPWNENRFAEGMNDLWERMDLGRDIDFDKMNTFIMSYGTFIWFKYDALKPLFDLDLQDEEIPAEPIPQHTILHSIERILVYLAWARRYDYAIAKNDIYITPFVDNVVLNIRPDTLPNTYINFDNIGGIKGALKYIIVGPGTAVKYIFRRIKRKFKSLEHHHHHH | soluble
3 | MGSDKIHHHHHHMPTLPMPSFLSSYWESSFNLKQHIQEFLQLDAEILETKLEFGQQQMAELGHKDFDWEQATAFYRDKVGEVYLFELGAWHLASHDYIGDTLRLIADHAHGCVLDFGGGIGTHAIGAALCPHVEQVVYCDINPINFDFVKYRAEKLGLSEKIIFCVEIPPQKTFDTIMSFDVLEHLPDPSQQLLEFHQILADEGKMILNWHFFKGFNQEHPFHLDDPQAIDTFFKTIQSNCLEVFHPYHITARCYRKWN | not soluble
4 | MSLANGVWSLQPLADMSAAEFRDWQVLLENRTGVVLNEQRRTFLQTSLTARMRELGIGDYHSYYRQVTDGPRGAVEWAILLDRLTVQETRFFRHPPSFELLERYLGERLGREGMPRPWALWSVGCSSGEEPYSMAMCAAQALRGWQRGDFFGVTGTDISLHALQRARAANYPARKLEQLPAEMVERYCERQADGSFSVKTILTGRVCCARLNVLDLAKAPWSGMDVIFCQNLLIYFRRWRRREILNRLAERLAPGGLLVIGVGEVVDWSHPELEPVADERVLAFTRKGEGHHHHHH | soluble
5 | MEVYIPSFRHEDSDLERGYTVFKIEVLMNGRKHFVEKRYSEFHALHKKLKKCIKTPEIPSKHVRNWVPKVLEQRRQGLETYLQAVILENEELPKLFLDFLNVRHLPSLPKAESCGSFDETESEESSKLSHQPVLLFLGDPYVLPAASDFPNVVIEGVLHGIFFSHLQPR | not soluble
6 | MGSDKIHHHHHHMRLAAATGFSFVGLRVIAVTPNERVYDLSPGSPLLAATQQALKETALYVLDTEFLQVNADTTREAWLPALEAAGALGAKTFTIAAGDDNIAPLTDTIGAMVDDARDFGVTPALEPISYRSVHSIPQAAAIARDSGGKVVADTLHMARFGATPEELTDVTDVLGVLQLCDSPLQRPADLDGLVTESRSLRLAPGEGEQNLLTFVNALDSNVPLSVETPNDGEVASRGDAGWINHLYNTTQALLEKIEEAV | not soluble
7 | MTVKAMALNTNQLFAYLNRGDIAEFKFSPLFTTLFFPNVATFSTQNIMLDTLDIEEVTMSAFCSPMVGSQVQRDKGYETSTIKPGYMKPKHEIDPTKTIMRMAGEDPAQLNDPTYRRMRLITGNMRRQINAIKARVEWLAVNAVTTGKNIIEGEGIERYEIDWKIPEKNIIEQADGKKWSEQDKETHYPIYDIELYADQAGCPANVMIMGAEVWRTLRSFKKFRELYDLSRGSESAAELACKNLGEVVSFKGYLGDLALIVYSGKYTDSDGTEKYFLEPDLLVLGNTNNKGLVAYGAIMDQEAVRTGATQNMFYPKNWIEDGDPAIEYVQTHSAPQPVPADIRKFVTVKIA | soluble
8 | MNTTPLVIGAYAALPATRADQETFYDRLHADLEATGLELPFRDSIHDDPAWLASQLAGRFTDSIITAIPGTMMRVWDGGTFGLASPDDDGRNAAIAFTRSIIDSARALDDAAGHRVIAGIHIHSAPSVTANRDQFLRSLTELLEGMDNDDPRLIIEHCDRYNEAVTGEKRFLSIEQEIAIAKETGIGITVNWGRSAMEAYDTQLPARHIQALVAEGVFEGVMFSGAGDKENTFGAAWADLHLPHHVDEPASLMDDDRIAECLSAAGGAQKYHGAKIQAPADVDVATRVTMLGHITRHLR | soluble
9 | MEAHNQFLKTFQKERHDMKEAEKDEILLMENSRRFVMFPIKYHEIWAAYKKVEASFWTAEEIELAKDTEDFQKLTDDQKTYIGNLLALSISSDNLVNKYLIENFSAQLQNPEGKSFYGFQIMMENIYSEVYSMMVDAFFKDPKNIPLFKEIANLPEVKHKAAFIERWISNDDSLYAERLVAFAAKEGIFQAGNYASMFWLTDKKIMPGLAMANRNICRDRGAYTDFSCLLFAHLRTKPNPKIIEKIITEAVEIEKEYYSNSLPVEKFGMDLKSIHTYIEFVADGLLQGFGNEKYYNAVNPFEFMEDVATAGKTTFFEKKVSDYQKASDMSKSATPSKEINFDDDF | soluble
10 | VHFHPFGNVNFYEMDWSLKGDLWAHDPVIAKEGSRWYVFHTGSGIQIKTSEDGVHWENMGWVFPSLPDWYKQYVPEKDEDHLWAPDICFYNGIYYLYYSVSTFGKNTSVIGLATNQTLDPRDPDYEWKDMGPVIHSTASDNYNAIAPNVVFDQEGQPWLSFGSFWSGIQLIQLDTETMKPAAQAELLTIASRGEEPNAIEAPFIVCRNGYYYLFVSFDFCCRGIESTYKIAVGRSKDITGPYVDKNGVSMMQGGGTILDEGNDRWIGPGHCAVYFSGVSAILVNHAYDALKNGEPTLQIRPLYWDDEGWPYLSV | soluble
11 | MSLSTIAIFGSYVLSRKDGAQDVLRDHWVLVEGKKIAAVTRDRPRADEVYDRPGRFVLPGLLNLHNHCFSEAVARSHSEDGTGRKNNQSIVYTVLLPLTKRGADILSAEERMAVARLGILQLLKGGATTVMEPFRNSIPEMFDAAEEMGIRFYGAPYLFSTSDAKAGPDGVVQYSGDDGTADMATWDALYQRWNNRGDGRISLAMSPHATDTCGPDLLKACAARARELGVPITTHMAQSRAEVETIGKRYGGRTPAQYLDWLGLLAPDLMAAHCMFSTDDDLKLMAARGMTVLNCPRVFARAGVTAAFSRFAEHGVRTVVGTDGYNMDLLGELNAASLISKITSQRADVANSPELIEANTAVAADVIKRPDLGRIEPGATADLTVVDLTHPHLQPLFDPRRALIALANRANIDQVMVDGRVLVDGGRYLGADEAAITAAGSAAIGKIWDLPEAQAAFNGEGHHHHHH | soluble
12 | MHLTCKNGEIKTIMWSNISEQFPVTGYSYWAVGVDITHLKAIEEQLKQQTSELELIFKALPDLCFLTEDDGTIIDYKAGSPTKFYVPAEAFMGKKFYEVLPTSVAQQFQEAINQVKEKGTNVIVEYPLTLNGSIDFFEARCLPLLHDKIMIIVRDITERKKTEELLNKSDTLAAIGQLAAGVAHEVRNPLTVIKGFIQLFQINKEDQERYFDLMLSEIERIEAILQEFLSIAKTDEINTEKKNIYQIFKNVVSLMNTKAIMTNIQVELFTGDKDIIIECSENQLKQVFINILQNSIEAMPNGGGISIHIKEINDDGVIIHVIDEGIGIPEERIKRLGEPFYSTKEKGTGIGLMLSYKIIESHQGTISIRSEVGVGTTVTIYLPKVLNKQSLSNCDDKCIAIRTSSNS | not soluble
13 | MAVYRNVQVNFWQDDFVLDLTPEERYFYVYLLTCSKTTQCGIFPFPKRLAEMETGYNRETVDKLVQRFVDYGKILYDADTRELFVLNWLRYNPVTNTNVEKCVLRELKSVKNKEFVHMFLQKCVEEELNVPMLLAHFGMPSDLAVDDVEPVCEETEAEEEVIEEETGSRVFSFYEQHFGSLSPFAVEELSAWMEDLSEELVLKALQIAFENNKRTVAYVKGILRGWHGKGFTKVCEVEADTAKFRKKESSVSTGETEEFLARCEEWEKNAPSEEELQRFLAERGWRP | not soluble
14 | HHHHHHATGDDHFYAEYLMPGLQRLLDPESAHRLAVRVTSLGLLPRATFQDSDMLEVKVLGHKFRNPVGIAAGFDKNGEAVDGLYKLGFGFVEVGSVTPQPQEGNPRPRVFRLPEDQAVINRYGFNSHGLSVVEHRLRARQQKQAQLTADGLPLGINLGKNKTSEDAAADYAEGVRTLGPLADYLVVNVSSPNTAGLRSLQGKTELRHLLSKVLQERDALKGTRKPAVLVKIAPDLTAQDKEDIASVARELGIDGLIVTNTTVSRPVGLQGALRSETGGLSGKPLRDLSTQTIREMYALTQGRIPIIGVGGVSSGQDALEKIQAGASLVQLYTALIFLGPPVVVRVKRELEALLKERGFTTVTDAIGADHRR | soluble
15 | MSLSMKKERGVVYTPLKISNYIIDSTISEEDIIKNPFLKIVDPACGCGNIIIPCFIYLRNIYIKNLDKINNINKLELREENINYHIIKNNLFGYDVDLNAIKVLTIDLFCESKCFSSNFLCKDFLLDEIGIKYDIFLSNPPYVGLKSINKEYSAILKTMYPSYKDKADISYCFFEKSILCLKIDGKLGFITSRYFLESQSGEELRRILVEKCSLYKIVDFYGIRPFKKAGIDTVMIFLERGIGDRKSIEIIKPKIMKNNRKDEFYYSLFNGTNEGIDKFYINIKALDSKRWILRKDEEIDIINKIEKNSEGHHHHHH | not soluble
16 | MDIMQGPSESFVDFANRLIKAVEGSDLPPSARAPVIIDCFRQKSQPDIQQLIRTAPSTLTTPGEIIKYVLDRQKTAPLTDQGIAAAMSSAIQPLIM | soluble
17 | MVKIVELQEKESLYYCTKDEDHFFDRKAFGLKGEKVQKIAVAFANADGGEILVGIADDKDEVIPEKRWQGQESTEAYNSVIQALSELVPSVDFRFDFLTRVNESRNYVLRVKINKGLSVHETAKKKIFLRQGAQSLPVTAPIKILELTHAKGIISEEDSLVNSASIDELDSSIELTKFLSELPIRAPDPITFLLKEKLVDSETWAPTVAAVLLFAENPSAELPKQCAIRIVRYDTDGEDIDRDALTEDNIAIEGSLYQQIQDAYSKIELFLSKNKVWKVEGLVETKYPKETIWEILVNTVIHRDYAISDNVLVSIFNNRIEFKSPGRFTGFVTAENILENRCSRNSKIVRILSKYKDSPNKDLGEGMNTAFQRMRSMGLRDPEILEDGNYVKIILRHSSNDDPETLIMKFIESNGEINNRQARDLTGIDRTEKVTYQFSKLRDKGLIQRKDSSTGLKSSWIAVLEHHHHHH | not soluble
18 | NDDKEAKKEAQEKEKNTPNGLVYTNLDFDSFKATIKNLKDKKVTFKEVNPDIIKDEVFDFVIVNRVLKKIKDLKHYDPMIEKIFDEKGKEMGLNVEIQINPEVKDFFTFKSISTTNKQRCFLSLRGETREILCDNKLYNMLLAVFNSYDPNDLLKHISTVESLKKIFYTITCEAVY | soluble
19 | MELSSLTAVSPVDGRYGDKVSALRGIFSEYGLLKFRVQVEVRWLQKLAAHAAIKEVPAFAADAIGYLDAIVANFSEEDAARIKTIERTTNHDVKAVEYFLKEKVAEIPELHAVSEFIHFACTSEDINNLSHALMLKTARDEVILPYWRQLIDGIKDLAVQYRDIPLLSRTHGQPATPSTIGKEMANVAYRMERQHRQLNQVEILGKINGAVGNYNAHIAAYPEVDWHQFSEEFVTSLGIQWNPYTTQIEPHDYIAELFDCVARFNTILIDFDRDVWGYIALNHFKQKTIAGEIGSSTMPHKVNPIDFENSEGNLGLSNAVLQHLASKLPVSRWQRDLTDSTVLRNLGVGIGYALIAYQSTLKGVSKLEVNRDHLLDELDHNWEVLAEPIQTVMRRYGIEKPYEKLKELTRGKRVDAEGMKQFIDGLALPEEEKARLKAMTPANYIGRAITMVDELK | not soluble
20 | MTKRIEIKPATAADQAALAEIYLVDRQQDFPWVTDPQLQDFNEDSRGEFVLVAWIDGQRAGFCSLYRLANFIHLLFVAPDFRHLKVGERLLTEMRQYATEPLTLKCVMANENALRFYAQVGFRIVK | not soluble
